# Measurements: US20230312753A1 (IMMUNORIZON, published 2023)
# T1: h5T4-His (recombinant human 5T4) (human, UniProt Q13641 32-355, limits assumed)
# T1 construct: Bought protein; also called recombinant 5T4
# T1 sequence (looked up): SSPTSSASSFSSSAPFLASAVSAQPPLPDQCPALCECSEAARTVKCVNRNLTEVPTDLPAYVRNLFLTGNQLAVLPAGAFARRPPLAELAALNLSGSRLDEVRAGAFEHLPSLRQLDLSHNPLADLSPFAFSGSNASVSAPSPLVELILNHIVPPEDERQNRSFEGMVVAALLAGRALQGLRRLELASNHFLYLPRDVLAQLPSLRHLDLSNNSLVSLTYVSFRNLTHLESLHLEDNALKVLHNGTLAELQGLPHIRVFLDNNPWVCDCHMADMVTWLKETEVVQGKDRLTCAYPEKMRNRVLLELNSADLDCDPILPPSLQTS
# B1: IM-1062 Tribody (other)
# heavy: GGSGGSEVQLVESGGGLVQPGGSLRLSCAASGFTFNTYAMNWVRQAPGKGLEWVARIRSKYNNYATYYADSVKDRFTISRDDSKNTLYLQMNSLRAEDTAVYYCVRHGNFGNSYVSWFAYWGQGTMVTVSSASTKGPSVFPLAPSSKSTSGGTAALGCLVKDYFPEPVTVSWNSGALTSGVHTFPAVLQSSGLYSLSSVVTVPSSSLGTQTYICNVNHKPSNTKVDKRVEPKSCPPCGGGGSDIQMTQSPSSLSASVGDRVTITCRASENIYSYLAWYQQKPGKAPKLLIYNAKTLAEGVPSRFSGSGSGTDFTLTISSLQPEDFATYYCQHHYGTPRTFGGGTKVEIKGGGGSGGGGSGGGGSGGGGSQVQLVQSGAEVKKPGASVKVSCKASGYTFTSYWMNWVRQAPGQGLEWMGRIDPYDSETHYAQKLQGRVTMTTDTSTSTAYMELRSLRSDDTAVYYCARGGYDFDVGTLYWFFDVWGQGTTVTVSS
# light: GGSGGSQAVVTQEPSLTVSPGGTVTLTCRSSTGAVTTSNYANWVQQKPGQAPRGLIGGTNKRAPGTPARFSGSLLGGKAALTLSGVQPEDEAEYYCALWYSNLWVFGGGTKLTVLGQPKAAPSVTLFPPSSEELQANKATLVCLISDFYPGAVTVAWKADSSPVKAGVETTTPSKQSNNKYAASSYLSLTPEQWKSHRSYSCQVTHEGSTVEKTVAPTECPPCSGGGSDIQMTQSPSSLSASVGDRVTITCRASQGISNYLAWFQQKPGKAPKSLIYRANRLQSGVPSRFSGSGSGTDFTLTISSLQPEDVATYYCLQYDDFPWTFGQGTKLEIKGGGGSGGGGSGGGGSGGGGSQVQLVQSGAEVKKPGASVKVSCKASGYTFTSFWMHWVRQAPGQGLEWMGRIDPNRGGTEYNEKAKSRVTMTADKSTSTAYMELSSLRSEDTAVYYCAGGNPYYPMDYWGQGTTVTVSS
# notes: Tri-specific antibody (Tribody): anti-CD3 epsilon Fab with an anti-5T4 scFv and an anti-NKG2A scFv, no regulatory domain; also called the Tribody format
# Tests used:
# [1] = biological target: T2, NKG2A/CD94 on CHO cells (CHOK1-NKG2A-CD94) (human, UniProt P26715 1-233; Q13241 1-179, limits assumed); assay: FACS on CHO cells over-expressing human NKG2A (FIG. 45F)
# T2 construct: whole, on cells; also called CHO cells over-expressing NKG2A/CD94; CHO cell line over expressing ectopic NKG2A
# T2 sequence (P26715 whole entry, chain 1 of 2): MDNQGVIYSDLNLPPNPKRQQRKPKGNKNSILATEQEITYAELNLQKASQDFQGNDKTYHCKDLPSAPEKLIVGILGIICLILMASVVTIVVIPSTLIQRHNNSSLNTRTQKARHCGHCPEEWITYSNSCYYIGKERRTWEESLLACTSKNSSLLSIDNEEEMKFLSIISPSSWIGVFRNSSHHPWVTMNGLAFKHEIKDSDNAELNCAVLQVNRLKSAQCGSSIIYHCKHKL
# T2 sequence (Q13241 whole entry, chain 2 of 2): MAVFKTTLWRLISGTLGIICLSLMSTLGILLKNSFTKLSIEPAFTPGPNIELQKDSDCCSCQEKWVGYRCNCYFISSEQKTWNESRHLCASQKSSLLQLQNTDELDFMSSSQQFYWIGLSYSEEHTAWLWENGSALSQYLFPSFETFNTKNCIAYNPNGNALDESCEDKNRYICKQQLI
# Procedure: (§1) Then wash the cells 3 times with 170 µL FACS buffer. Re-suspend the cells at 100 µL/well with secondary antibody (goat anti-human Ig Fab-FITC, Cat # 2085-02, Southern biotech) with 1:400 dilution and incubate the plate for 30 min at 4° C. in dark. Centrifuge the plate at 2000 rpm, 4° C. for 5 min and discard supernatant. Then wash the cells 3 times with FACS buffer and analyze the sample with FACS verse. The fluorescence intensity of the staining was measured using flow cytometer (BD, FACSVerse). The geometric mean fluorescence intensity (GMFI; median fluorescence intensity (MFI)) of set antibodies staining was calculated (BD FACSuite software). Dose-response curves were generated and EC50s for thetrispecific variants binding were calculated using GraphPad Prism software.
# Results: The expressed trispecific constructs were analyzed for their binding to cells expressing endogenous CD3ε, 5T4 and NKG2A/NKG2D. […] (FIG. 45F).
# NKG2A-CD94-ECD-hFc = biological target: T3, NKG2A-CD94-ECD-hFc (human, UniProt P26715 94-233; Q13241 32-179, limits assumed); assay: ELISA on coated NKG2A-CD94-ECD-hFc (FIG. 43C)
# T3 construct: extracellular domain; Lot 20200724002, 'provided by CP'; the two-chain layout here is only the reading of the name; also called human NKG2A (recombinant); NKG2A antigen; not shown: human Fc (hFc)
# T3 sequence (P26715 94-233 limits assumed, chain 1 of 2): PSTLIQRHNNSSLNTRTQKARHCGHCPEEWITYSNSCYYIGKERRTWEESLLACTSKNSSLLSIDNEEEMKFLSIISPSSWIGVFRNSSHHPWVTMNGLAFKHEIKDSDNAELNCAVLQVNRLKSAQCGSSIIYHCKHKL
# T3 sequence (Q13241 32-179 limits assumed, chain 2 of 2): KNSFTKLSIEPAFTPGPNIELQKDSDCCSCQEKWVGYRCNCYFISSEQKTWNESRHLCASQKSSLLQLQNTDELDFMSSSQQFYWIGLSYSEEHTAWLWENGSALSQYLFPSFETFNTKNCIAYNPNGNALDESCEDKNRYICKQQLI
# Procedure: (§2) Methods: ELISA binding of Tribody/ProTribody antibody constructs to antigens: Dilute target protein (hCD3epsilon-His (cat # 10977-H08S, supplier Sino Biological); h5T4-His (cat# 19845-H08H, supplier Sino Biological); NKG2A-CD94-ECD-hFc, Lot:20200724002, provided by CP; or NKG2D-ECD-hFc, Lot: 20200413002, provided by CP) into PBS with final concentration of 0.01 µg/mL for hCD3epsilon-His, 0.3 µg/mL for h5T4-His, 1 µg/mL for NKG2A-CD94-ECD-hFc and 0.7 µg/mL for hNKG2D-ECD-hFc respectively and coat 100 µL/well on ELISA plate (cat: 9018, supplier Corning) respectively. Incubate O/N, 4° C. The plates were blocked with 250 µL 1% BSA in PBST for 1 hr at 37° C.Wash 4 times with PBST. All the washes are done using Biotek (Elx 405). All the Tribody set antibodies were diluted to 400 nM and make 4-fold serially dilutions (12 points, including 0 point). Add 100 µL/well diluted antibody constructs solution to plate, incubate for 1 hr at 37° C.Wash 4 times with PBST. Add 100 µL/well anti-human kappa light chain-HRP (1:10000), incubate for 0.5 hr at 37° C. Wash 4 times with PBST. 100 µL/well of TMB substrate was added and incubated at room temperature for 5 min. 100 µL/well of 1N HCl to terminate reaction. Plates were read using ELISA plate reader at 450 nm wavelength (instrunet SpectraMax M5e). Data Analysis was performed using Graphpad prism 5 software by using nonlinear regression (curve fit): log (agonist) vs. response, agonist is antibody concentration (nM) and response is OD value.
# [2] = biological target: T1, h5T4-His (recombinant human 5T4); assay: ELISA on coated h5T4-His (FIG. 43B)
# Procedure: as §2
# [3] = biological target: T2, NKG2A/CD94 on CHO cells …; assay: FACS on CHO cells over-expressing ectopic NKG2A (NKG2A/CD94 by the legend) (FIG. 45E)
# Procedure: as §1, with “Suspension cultured cells was harvested directly, and adherent cell were digested using TrypLE Express Enzyme (cat: 12604-013, supplier Life technologies). Centrifuge at 1000 rpm for 5 min and discard the supernatant. Cells are suspended at a concentration of 2×10⁶/mL in FACS buffer (2% FBS in PBS) and add 100 µL/well of cell suspension to the plate (cat #3799, supplier Corning). Centrifuging the plates at 2000 rpm for 5 min and discard the supernatant. Re-suspend the cells in 100 µL/well of Tribody set antibodies (400 nM start, 4-fold dilution, 8 point including 0 point) and incubate the plate for 60 min at 4° C. Centrifuge the plate at 2000 rpm, 4° C. for 5 min and discard supernatant. Then” for “Then”, “Then wash the cells 3 times with FACS buffer and analyze the sample with FACS verse.” left out
binder,measurement,setting,value
B1,EC50,[1],16 nM
same,EC50,NKG2A-CD94-ECD-hFc,4.4 nM
same,EC50,[2],45 nM
same,EC50,[3],29 nM
